Positions count from the first letter of the chain named. Numbers in names are those of the source. Each block holds one binder with its values, some of them ahead of it. Square brackets hold non-standard residues; d marks the D form. Ends that are not written are not given here. Hyp = O=C(O)[C@@H]1C[C@@H](O)CN1
Key:
8F3 human IgE mAb = assay: ELISA; settings: chain shown with the change; mAb 10 µg/mL (highest point of the titration); parent: est. 3.6; read off a plot
1H9 human IgE mAb = assay: ELISA; settings: chain shown with the change; mAb 10 µg/mL (highest point of the titration); parent: est. 3.3; read off a plot
13D9 human IgE mAb = assay: ELISA; settings: chain shown with the change; mAb 10 µg/mL (highest point of the titration); parent: est. 3.5; read off a plot
16A8 human IgE mAb = assay: ELISA; settings: chain shown with the change; mAb 10 µg/mL (highest point of the titration); parent: est. 3.4; read off a plot
[1] = target: 38B7 human IgE mAb (human); assay: SPR; Carterra LSA; antibody as ligand, allergen or peptide as analyte; how the antibody was held for these pairs is not told
38B7 human IgE mAb (human), sequence (heavy, as listed by the source, chain 1 of 2): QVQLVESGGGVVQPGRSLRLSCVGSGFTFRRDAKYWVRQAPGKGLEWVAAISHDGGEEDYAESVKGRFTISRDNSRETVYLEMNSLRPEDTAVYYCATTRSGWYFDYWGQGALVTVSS
38B7 human IgE mAb (human), sequence (light, as listed by the source, chain 2 of 2): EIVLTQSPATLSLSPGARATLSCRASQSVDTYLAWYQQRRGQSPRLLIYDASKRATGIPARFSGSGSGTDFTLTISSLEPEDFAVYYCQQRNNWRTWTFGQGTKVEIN

13D9 human IgE mAb, sequence (chain, as listed by the source, chain 1 of 2): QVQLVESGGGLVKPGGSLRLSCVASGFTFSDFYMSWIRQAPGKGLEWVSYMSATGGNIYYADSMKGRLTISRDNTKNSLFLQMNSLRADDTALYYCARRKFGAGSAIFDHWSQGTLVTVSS
13D9 human IgE mAb, sequence (chain, as listed by the source, chain 2 of 2): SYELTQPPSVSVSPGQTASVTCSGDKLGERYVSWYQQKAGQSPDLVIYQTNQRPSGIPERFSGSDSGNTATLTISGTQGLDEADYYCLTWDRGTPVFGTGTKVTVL
1H9 human IgE mAb, sequence (chain, as listed by the source, chain 1 of 2): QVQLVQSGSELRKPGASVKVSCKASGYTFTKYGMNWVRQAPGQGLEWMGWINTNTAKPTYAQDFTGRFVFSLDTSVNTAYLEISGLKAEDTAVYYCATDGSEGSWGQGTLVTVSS
1H9 human IgE mAb, sequence (chain, as listed by the source, chain 2 of 2): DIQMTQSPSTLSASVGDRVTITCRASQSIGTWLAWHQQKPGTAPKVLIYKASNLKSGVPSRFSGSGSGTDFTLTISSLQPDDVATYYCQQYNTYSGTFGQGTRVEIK
16A8 human IgE mAb, sequence (chain, as listed by the source, chain 1 of 2): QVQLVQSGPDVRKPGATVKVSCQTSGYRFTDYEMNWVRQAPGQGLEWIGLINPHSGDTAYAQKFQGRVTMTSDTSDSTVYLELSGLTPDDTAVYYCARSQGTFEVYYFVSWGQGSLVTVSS
16A8 human IgE mAb, sequence (chain, as listed by the source, chain 2 of 2): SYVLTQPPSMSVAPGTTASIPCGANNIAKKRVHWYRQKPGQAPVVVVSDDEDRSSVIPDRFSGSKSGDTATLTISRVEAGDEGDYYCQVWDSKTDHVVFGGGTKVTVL
8F3 human IgE mAb, sequence (chain, as listed by the source, chain 1 of 2): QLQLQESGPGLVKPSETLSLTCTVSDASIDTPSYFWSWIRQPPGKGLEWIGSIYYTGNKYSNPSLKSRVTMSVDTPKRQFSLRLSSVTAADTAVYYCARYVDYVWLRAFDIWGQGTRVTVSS
8F3 human IgE mAb, sequence (chain, as listed by the source, chain 2 of 2): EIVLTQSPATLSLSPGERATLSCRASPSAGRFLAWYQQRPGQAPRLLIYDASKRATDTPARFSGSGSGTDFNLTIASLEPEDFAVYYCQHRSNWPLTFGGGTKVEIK

B2: Ara h 6c D19R; E27A; N82A (protein)
chain: SCERQVRRVNLKPCAQHIMQRIMGEQEQYDSYDIRSTRSSDQQQRCCDELNEMENTQGCMCEALQQIMEAQCDRLQDRQMVQQFKRELMSLPQQCNFRAPQRCDLDVSGGRC
response (13D9 human IgE mAb): 1.6 OD 450nm

B3: Ara h 6c Q113R; R114E (protein)
chain: B2 chain with R7D, A15E, A70N, Q101R, R102E
response (1H9 human IgE mAb): 3.4 OD 450nm | response (13D9 human IgE mAb): 3.5 OD 450nm | response (16A8 human IgE mAb): 2.6 OD 450nm

Next, values leading:

response (8F3 human IgE mAb): 3.6 OD 450nm | response (1H9 human IgE mAb): 1.6 OD 450nm | response (13D9 human IgE mAb): 3.5 OD 450nm | response (16A8 human IgE mAb): 3.4 OD 450nm
B1: Ara h 6c R90Q; Q91A (protein)
chain: B2 chain with R7D, A15E, A70N, R78Q, Q79A

Kd [1]: 7.1 µM | koff [1]: 0.0887 s⁻¹ | kon [1]: 16900 M⁻¹ s⁻¹
Binder: EDSYERDPYSPSQD [nonhydroxylated DPYSPS containing peptide (…)]

Kd [1]: 0.02 µM | koff [1]: 0.00198 s⁻¹ | kon [1]: 101000 M⁻¹ s⁻¹
Binder: EDSYERDPYS[Hyp]SQD [hydroxylated DPYSPS containing peptide (…^OHSQD)]

Source: article PMC13169712
